Values of other authors in paper PMC11866742.

Target: SIRPα (Homo sapiens) (UniProt P78324)
Sequence of UniProt P78324 (P78324 31-373): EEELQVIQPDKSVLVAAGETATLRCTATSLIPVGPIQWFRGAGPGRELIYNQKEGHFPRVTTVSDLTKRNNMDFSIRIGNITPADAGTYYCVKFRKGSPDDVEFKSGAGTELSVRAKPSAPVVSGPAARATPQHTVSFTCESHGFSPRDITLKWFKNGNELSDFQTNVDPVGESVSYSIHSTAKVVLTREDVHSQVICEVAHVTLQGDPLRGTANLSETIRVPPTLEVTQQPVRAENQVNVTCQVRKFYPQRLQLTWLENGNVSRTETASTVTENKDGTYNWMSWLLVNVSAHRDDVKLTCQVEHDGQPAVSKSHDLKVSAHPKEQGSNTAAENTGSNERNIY

Kd: 1500 nM
Substance: CD47 (from UniProt Q08722)
